How the values were obtained:
[1] = target: MbTEC^PH (R28E) (Monosiga brevicollis); assay: FP; conditions: domain or fragment
[2] = target: MbTEC^PH (R28E) (Monosiga brevicollis); assay: fluorescence polarisation
[3] = target: MbTEC^PH (isolated PH domain of Monosiga brevicollis TEC), wild type, labeled with Atto488 (Monosiga brevicollis); assay: fluorescence polarisation

**Q.** How did the Kd [1] turn out when “MbTEC^32K (SH3-SH2-kinase module of Monosiga brevicollis TEC), wild type” was run?
**A.** Its Kd is 22.4 µM.

**Q.** Which results are given for “MbTEC^32K (SH3-SH2-kinase module of Monosiga brevicollis TEC), wild type (domain or fragment)”?
**A.** fold weakening against wild-type MbTEC^PH [2]: 5 fold; Kd [3]: 4 µM
